Assay results published in patent publication US20070141665A1.

Target: Cavβ3-I-II2.1 chimera (rat β3 subunit fused at its C-terminal end to the I-II loop of the rabbit Cavα2.1 subunit), [35S]-labelled (rat; rabbit) (UniProt P54287)
Experiment: Gβγ (10 to 900 nM) displaces the intramolecular Cavβ-AID2.1 binding of [35S] Cavβ3-I-II2.1; read as binding of the chimera to GST-AID1.2 after 30 min at 30 °C, SDS-PAGE and autoradiography

Sequence of UniProt P54287 (P54287 other isoform, or with tags, fused parts or gaps mutant): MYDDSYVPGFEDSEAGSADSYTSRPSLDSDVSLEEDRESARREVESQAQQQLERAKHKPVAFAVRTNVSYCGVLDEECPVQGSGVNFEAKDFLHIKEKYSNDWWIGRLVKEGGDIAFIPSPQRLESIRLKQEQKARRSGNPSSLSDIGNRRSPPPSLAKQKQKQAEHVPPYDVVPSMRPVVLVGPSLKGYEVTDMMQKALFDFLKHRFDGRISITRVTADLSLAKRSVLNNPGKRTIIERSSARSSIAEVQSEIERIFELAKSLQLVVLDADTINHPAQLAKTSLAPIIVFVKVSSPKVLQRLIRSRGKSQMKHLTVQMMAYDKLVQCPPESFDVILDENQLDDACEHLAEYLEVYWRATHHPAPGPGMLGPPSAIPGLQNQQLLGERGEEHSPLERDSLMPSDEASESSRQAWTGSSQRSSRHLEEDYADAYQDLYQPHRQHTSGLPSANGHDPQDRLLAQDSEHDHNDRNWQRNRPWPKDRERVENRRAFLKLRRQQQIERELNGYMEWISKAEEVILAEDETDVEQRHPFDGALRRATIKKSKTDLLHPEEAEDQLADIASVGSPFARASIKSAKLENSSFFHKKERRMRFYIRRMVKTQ

IC50: 160 nM
Substance: G-protein Gβγ complex (Calbiochem)
